Data on six substances can be found in US6623741.

For assay [1], the target named is viral gp41 of HIV-1 (on HIV-1 virions and HIV-1 infected cells) (HIV-1) (UniProt P04578). The assay can be described thus: cell-based or functional assay.
Assay [2] deals with MF-IV (MF5.1): E. coli maltose binding protein fused to RSV F protein residues 142-302 (E. coli; respiratory syncytial virus (strain A2)) (UniProt P03420). The assay can be described thus: competitive binding assay (B50) on the MF5.1 fusion protein (DP107 target).
Assay [3] shares this target. Nature of the assay: competitive binding assay (B50) on the MF5.1 fusion protein; reference T112.

Take DP107 (peptide): in assay [1], the Cell Fusion (IC90) came to 1 µM and the HIV-infectivity (IC90) amounted to 1000 nM.

DP178 (peptide): in assay [1], the Cell Fusion (IC90) was found to be 0.001 µM and the HIV-infectivity (IC90) turned out to be 80 nM.

In assay [1], “M41 (maltose binding protein fused to the extracellular domain of HIV-1 gp41, residues 540-686) (from UniProt P03377 540-686)” registered a Cell Fusion (IC90) of more than 50 µM and an HIV-infectivity (IC90) of more than 16 nM.

For “M41-P (M41 with Ile to Pro mutation at position 578) (from UniProt P03377 540-686)”, in assay [1], the Cell Fusion (IC90) was 0.083 µM and the HIV-infectivity (IC90) turned out to be 66 nM.

In assay [1], “M41-PΔ178 (M41Δ178 with the Ile to Pro mutation at position 578) (from UniProt P03377 540-642)” had a Cell Fusion (IC90) of more than 50 µM and an HIV-infectivity (IC90) of more than 8000 nM.

Consider T1091 (peptide), for which the binding affinity in assay [2] came out at 19 nM. This substance returned a fold lower binding affinity than T112 in assay [3] of 10 fold.
